According to patent US20110318339A1 (FABRUS, published 2011):
Residue numbers refer to the chain shown, from its start. In names and notes the source's numbering stands.

Legend:
[1] = biological target: T1, full-length human DLL4 expressed on the surface of CHO cells (human, UniProt Q9NR61 26-685); test: flow cytometry, 250 nM biotinylated Notch-Fc on CHO-DLL4 cells, no Fab (0 nM control)
T1 construct: also called CHO-DLL4; DLL4-expressing CHO cells
Experimental: (§1) Streptavidin-PE was used as a detection molecule.
(§2) Fab was 5-fold serially diluted in 2% BSA/PBS from a starting concentration of 50 nM. […] PE-labeled streptavidin (Cat# 21627, Pierce-Thermo Scientific) was then added to a final dilution of 1:5 followed by incubation for 10 minutes at room temperature. The cells were then washed twice in 2% BSA/PBS and analyzed by flow cytometry on a BD FACSAria.

[2] = biological target: T2, recombinant human DLL4 (Cat# 1506-D4/CF, R&D Systems) (human, UniProt Q9NR61 27-529); test: ELISA, hDLL4 coated 0.5 ng/ul, Fab 0.78 nM
T2 construct: Bought protein; also called hDLL4; h DLL4
Experimental: (§3) The plate was blocked by adding 1% BSA in Tris-buffered Saline Tween (TBST) and incubating for 1 hour at room temperature followed by washing 2 times with 150 μl TBST. A Fab antibody was serially diluted in 1% BSA in PBS. A 50 μl aliquot of each serial dilution was added, in triplicate, to each well and the plate was incubated for 1 hour at room temperature followed by washing 2 times with TBST. 50 μl of either goat anti-human kappa HRP conjugated secondary antibody (Cat # A7164-1 mL, Sigma-Aldrich) or goat anti-human lambda HRP conjugated secondary antibody (Cat # L1645-1 ml, Sigma-Aldrich), diluted 1:1000 in 1% BSA in PBS, was added to each well and the plate was incubated for 30 minutes at room temperature followed by washing 3 times with 200 μl TBST. Finally, 50 μl TMB one-component reagent (Cat # TMBW-1000-01, BioFax) was added and allowed to develop for 2 minutes at room temperature. The reaction was immediately halted by the addition of 50 μl 0.5M H₂SO₄ and the absorbance at 450 nm was measured using an ELISA plate reader.

[3] = biological target: T2, recombinant human DLL4 (Cat# …); test: ELISA, hDLL4 coated 0.5 ng/ul, Fab 1.56 nM
Experimental: as §3

[4] = biological target: T2, recombinant human DLL4 (Cat# …); test: ELISA, hDLL4 coated 0.5 ng/ul, Fab 3.13 nM
Experimental: as §3

[5] = biological target: T2, recombinant human DLL4 (Cat# …); test: ELISA, hDLL4 coated 0.5 ng/ul, Fab 6.25 nM
Experimental: as §3

[6] = biological target: T2, recombinant human DLL4 (Cat# …); test: ELISA, hDLL4 coated 0.5 ng/ul, Fab 12.50 nM
Experimental: as §3

[7] = biological target: T2, recombinant human DLL4 (Cat# …); test: ELISA, hDLL4 coated 0.5 ng/ul, Fab 25.00 nM
Experimental: as §3

[8] = biological target: T2, recombinant human DLL4 (Cat# …); test: ELISA, hDLL4 coated 0.5 ng/ul, Fab 50.00 nM
Experimental: as §3

[9] = biological target: T2, recombinant human DLL4 (Cat# …); test: ELISA, hDLL4 coated 0.5 ng/ul, Fab 100.00 nM
Experimental: as §3

[10] = biological target: T1, full-length human DLL4 expressed on the …; test: flow cytometry competition, 250 nM biotinylated Notch-Fc as competitor, Fab 2 nM
Experimental: as §1, §2

[11] = biological target: T1, full-length human DLL4 expressed on the …; test: flow cytometry competition, 250 nM biotinylated Notch-Fc as competitor, Fab 10 nM
Experimental: as §1, §2

[12] = biological target: T1, full-length human DLL4 expressed on the …; test: flow cytometry competition, 250 nM biotinylated Notch-Fc as competitor, Fab 50 nM
Experimental: as §1, §2

[13] = biological target: T3, Recombinant Human DLL4 (Cat# 1506-D4/CF, R&D Systems) (human, UniProt Q9NR61 27-529); test: ELISA, hDLL4 coated, estimated from dose-dependent binding
T3 construct: Bought protein; also called rHuman DLL4; hDLL4

[14] = biological target: full-length human DLL4 expressed on the surface of CHO cells (human, UniProt Q9NR61 27-685); test: cell-based or functional assay
[15] = biological target: T4, recombinant human DLL4 (Cat# 1506-D4/CF, R&D Systems) (human, UniProt Q9NR61 27-529); test: ELISA, DLL4 coated, Fab 20 nM
T4 construct: Bought protein; also called hDLL4; rHuman DLL4
Outline: (§4)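 A450 read-out after 2 min TMB development and acid stop. Fab, serially diluted in 1% BSA/PBS, bound in triplicate for 1 h at RT on plates blocked with 1% BSA/TBST; detection via HRP goat anti-human kappa or lambda (1:1000, 30 min RT).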

[16] = biological target: T4, recombinant human DLL4 (Cat# …); test: ELISA, DLL4 coated, Fab 0.74 nM
Outline: as §4

[17] = biological target: T4, recombinant human DLL4 (Cat# …); test: ELISA, DLL4 coated, Fab 2.22 nM
Outline: as §4

[18] = biological target: T4, recombinant human DLL4 (Cat# …); test: ELISA, DLL4 coated, Fab 6.67 nM
Outline: as §4

[19] = biological target: T4, recombinant human DLL4 (Cat# …); test: SPR (ProteOn), hDLL4 amine-coupled on chip
Outline: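 SPR on a ProteOn GLM chip, with DLL4 amine-coupled at three surface densities. Fab analytes were run as 3-fold serial dilutions from 1 μM in 10 mM HEPES pH 7.4, 150 mM NaCl, 0.01% Tween-20, 0.1 mg/ml BSA at 25° C. Responses from each surface were globally fit for binding constants.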

[20] = biological target: T5, recombinant mouse DLL4 (Cat# 1389-D4-050/CF, R&D Systems) (mouse, UniProt Q9JI71 28-525); test: SPR, mDLL4 on chip, row 'Surface 1' (first)
T5 construct: Bought protein; also called mDLL4
T5 sequence (Q9JI71 28-525 limits assumed): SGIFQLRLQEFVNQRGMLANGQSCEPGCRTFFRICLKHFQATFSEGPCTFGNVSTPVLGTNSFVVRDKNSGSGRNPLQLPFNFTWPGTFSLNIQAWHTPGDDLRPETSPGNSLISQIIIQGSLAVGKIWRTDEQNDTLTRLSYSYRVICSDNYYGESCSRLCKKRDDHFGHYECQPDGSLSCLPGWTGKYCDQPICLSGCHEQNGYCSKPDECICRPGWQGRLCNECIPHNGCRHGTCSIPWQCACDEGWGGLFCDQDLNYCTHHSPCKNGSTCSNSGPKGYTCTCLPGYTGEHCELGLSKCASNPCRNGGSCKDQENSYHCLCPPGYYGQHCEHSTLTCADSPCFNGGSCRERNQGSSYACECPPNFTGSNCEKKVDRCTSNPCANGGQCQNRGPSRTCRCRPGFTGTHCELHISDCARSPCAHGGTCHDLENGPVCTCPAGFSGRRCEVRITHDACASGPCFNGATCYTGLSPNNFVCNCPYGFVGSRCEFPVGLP

[21] = biological target: T5, recombinant mouse DLL4 (Cat# …); test: SPR, mDLL4 on chip, row 'Surface 1' (third)
[22] = biological target: T5, recombinant mouse DLL4 (Cat# …); test: SPR, mDLL4 on chip, row 'Surface 1' (second)
[23] = biological target: T5, recombinant mouse DLL4 (Cat# …); test: SPR, mDLL4 on chip, average of three surfaces
[24] = biological target: T3, Recombinant Human DLL4 (Cat# …); test: ELISA, DLL4 coated

B1: biotinylated Notch-Fc (rHuman Notch-1/Fc Chimera, cat# 3647-TK-050, R&D Systems) (Fc fusion)
chain: ARGPRCSQPGETCLNGGKCEAANGTEACVCGGAFVGPRCQDPNPCLSTPCKNAGTCHVVDRRGVADYACSCALGFSGPLCLTPLDNACLTNPCRNGGTCDLLTLTEYKCRCPPGWSGKSCQQADPCASNPCANGGQCLPFEASYICHCPPSFHGPTCRQDVNECGQKPGLCRHGGTCHNEVGSYRCVCRATHTGPNCERPYVPCSPSPCQNGGTCRPTGDVTHECACLPGFTGQNCEENIDDCPGNNCKNGGACVDGVNTYNCRCPPEWTGQYCTEDVDECQLMPNACQNGGTCHNTHGGYNCVCVNGWTGEDCSENIDDCASAACFHGATCHDRVASFYCECPHGRTGLLCHLNDACISNPCNEGSNCDTNPVNGKAICTCPSGYTGPACSQDVDECSLGANPCEHAGKCINTLGSFECQCLQGYTGPRCEIDVNECVSNPCQNDATCLDQIGEFQCICMPGYEGVHCEVNTDECASSPCLHNGRCLDKINEFQCECPTGFTGHLCQ
modifications: biotinylated with EZ-Link NHS-Biotin Reagent (sites not given)
notes: Bought Notch-1/Fc chimera; Fc part of the bought chimera not given
- signal of Notch-Fc bound to CHO-DLL4 (streptavidin-PE) [1]: 531

B2: Fab VH5-51_IGHD5-18*01>3_IGHJ4*01 G100K/G104T G24T/S28R/G35V (H:KT TRV) & V3-4_IGLJ1*01 (Fab, V domains shown)
VH: EVQLVQSGAEVKKPGESLKISCKTSGYRFTSYWIVWVRQMPGKGLEWMGIIYPGDSDTRYSPSFQGQVTISADKSISTAYLQWSSLKASDTAMYYCARRKYSYTYDYFDYWGQGTLVTVSS
VL: QTVVTQEPSFSVSPGGTVTLTCGLSSGSVSTSYYPSWYQQTPGQAPRTLIYSTNTRSSGVPDRFSGSILGNKAALTITGAQADDESDYYCVLYMGSGISYVFGTGTKVTVL
notes: Tested as Fab from E. coli (Plasmid A: CH1, His6, Flag; Plasmid E: CL lambda); also called H:KT TRV & L:wt
- ELISA absorbance at 450 nm [2]: 0.143 A450
- ELISA absorbance at 450 nm [3]: 0.183 A450
- ELISA absorbance at 450 nm [4]: 0.187 A450
- ELISA absorbance at 450 nm [5]: 0.31 A450
- ELISA absorbance at 450 nm [6]: 0.389 A450
- ELISA absorbance at 450 nm [7]: 0.6 A450
- ELISA absorbance at 450 nm [8]: 0.976 A450
- ELISA absorbance at 450 nm [9]: 1.45 A450
- signal of Notch-Fc bound to CHO-DLL4 (streptavidin-PE) [10]: 448
- signal of Notch-Fc bound to CHO-DLL4 (streptavidin-PE) [11]: 244
- signal of Notch-Fc bound to CHO-DLL4 (streptavidin-PE) [12]: 141

B3: Fab VH5-51_IGHD5-18*01>3_IGHJ4*01 H:KT TRV & V3-4_IGLJ1*01 (Fab, V domains shown)
VH: B2 VH
VL: B2 VL
notes: Fab, lambda light chain; also called H:KT TRV & L:wt; G100K/G104T G24T/S28R/G35V
- Kd [13]: ~50 nM

B4: IgG H:APFF VLTH & L:NDH LS (antibody, V domains shown)
VH: QVQLVQSGAEVKKPGASVKVSCKASGYTFTSYYMHWVRQAPGQGLEWMGIGLPTGHSTSYAQKFQGRVTMTRDTSTSTVYMELSSLRSEDTAVYYCAREEYAPFSAEYFQFWGQGTLVTVSS
VL: EIVLTQSPATLSLSPGERATLSCRASQNVDHYLAWYQQKPGQAPRLLIYDALNRSTGIPARFSGSGSGTDFTLTISSLEPEDFAVYYCQQRSNWPPWTFGQGTKVEIKR
- IC50, Notch-activation (luciferase reporter), T98G cells with CHO-DLL4 [14]: ~6 nM
- fold efficiency against Fab H:APFF VLTH & L:NDH LS, Notch-activation (luciferase reporter) [14]: 30 fold

B5: Fab VH1-46_IGHD6-6*01_IGHJ1*01 S102A/S103P/S104F/H111F I51V/N52L/S54T/G56H & L6_IGKJ1*01 S28N/S30D/S31H S52L/A55S (Fab, V domains shown)
VH: B4 VH with G51V
VL: B4 VL
notes: Fab made in E. coli: VH on CH1 with His6 and Flag tags (Plasmid A), VL on kappa CL (Plasmid C); also called H: APFF VLTH & L: NDH LS
- ELISA absorbance at 450 nm [15]: 0.91 A450
- ELISA absorbance at 450 nm [16]: 0.263 A450
- ELISA absorbance at 450 nm [17]: 0.523 A450
- ELISA absorbance at 450 nm [18]: 0.747 A450
- Kd [19]: 1.7 nM
- koff [19]: 0.00109 s⁻¹
- kon [19]: 684000 M⁻¹ s⁻¹
- Kd [20]: 7.3 nM
- koff [20]: 0.0021 s⁻¹
- kon [20]: 287000 M⁻¹ s⁻¹
- Kd [21]: 10.9 nM
- koff [21]: 0.00188 s⁻¹
- kon [21]: 173000 M⁻¹ s⁻¹
- Kd [22]: 10.8 nM
- koff [22]: 0.00178 s⁻¹
- kon [22]: 165000 M⁻¹ s⁻¹
- Kd [23]: 9.7 nM
- koff [23]: 0.00192 s⁻¹
- kon [23]: 208000 M⁻¹ s⁻¹

B6: Fab H:APFF VLTH & L:NDH (Fab, V domains shown)
VH: B4 VH with G51V
VL: B4 VL with L52S, S55A
notes: Fab, kappa light chain
- fold increased binding affinity against the antibody mutants with heavy chain H:APFF ALTH [24]: ~10 fold
- Kd [13]: ~1 nM
